Experimental data published in patent publication US20170209564A1.

Experiments:
Assay in all cases: ELISA, coated CR6261, P. pastoris medium
Details in all cases: remark: other sources report otherwise
71E7 = target: 71E7
84B8 = target: 84B8
69G8 = target: 69G8
96H8 = target: 96H8
84D3 = target: 84D3
69D2 = target: 69D2
71A4 = target: 71A4
78F11 = target: 78F11
75E9 = target: 75E9
56D2 = target: 56D2
48B10 = target: 48B10
67C10 = target: 67C10
56F4 = target: 56F4
55H2 = target: 55H2
86B3 = target: 86B3
7D9 = target: 7D9
63C3 = target: 63C3
72D4 = target: 72D4
6E12 = target: 6E12
74D7 = target: 74D7
71D3 = target: 71D3
48B11 = target: 48B11
2D9 = target: 2D9
80F10 = target: 80F10
26H1 = target: 26H1
76A10 = target: 76A10
75G5 = target: 75G5
88C5 = target: 88C5
86H9 = target: 86H9
58C8 = target: 58C8
66C8 = target: 66C8
9C10 = target: 9C10
51G3 = target: 51G3
10F9 = target: 10F9
53G10 = target: 53G10
36D6 = target: 36D6
86F1 = target: 86F1
29C2 = target: 29C2
79D5 = target: 79D5
51G10 = target: 51G10
1F2 = target: 1F2
7A7 = target: 7A7
850 = target: 850
54H4 = target: 54H4
63D3 = target: 63D3
75H8 = target: 75H8
9C6 = target: 9C6
8A10 = target: 8A10

B1: CR6261 (antibody, V domains shown)
VH: EVQLVESGAEVKKPGSSVKVSCKASGGPFRSYAISWVRQAPGQGPEWMGGIIPIFGTTKYAPKFQGRVTITADDFAGTVYMELSSLRSEDTAMYYCAKHMGYQVRETMDVWGKGTTVTVSS
VL: QSVLTQPPSVSAAPGQKVTISCSGSSSNIGNDYVSWYQQLPGTAPKLLIYDNNKRPSGIPDRFSGSKSGTSATLGITGLQTGDEANYYCATWDRRPTAYVVFGGGTKLTVLG
- CR6261 binding signal (71E7): 203000
- CR6261 binding signal (84B8): 582000
- CR6261 binding signal (69G8): 481000
- CR6261 binding signal (96H8): 206000
- CR6261 binding signal (84D3): 84400
- CR6261 binding signal (69D2): 446000
- CR6261 binding signal (71A4): 1.05e+06
- CR6261 binding signal (78F11): 84100
- CR6261 binding signal (75E9): 135000
- CR6261 binding signal (56D2): 146000
- CR6261 binding signal (48B10): 103000
- CR6261 binding signal (67C10): 306000
- CR6261 binding signal (56F4): 186000
- CR6261 binding signal (55H2): 58100
- CR6261 binding signal (86B3): 901000
- CR6261 binding signal (7D9): 77800
- CR6261 binding signal (63C3): 188000
- CR6261 binding signal (72D4): 330000
- CR6261 binding signal (6E12): 373000
- CR6261 binding signal (74D7): 359000
- CR6261 binding signal (71D3): 1.57e+06
- CR6261 binding signal (48B11): 303000
- CR6261 binding signal (2D9): 316000
- CR6261 binding signal (80F10): 90900
- CR6261 binding signal (26H1): 79700
- CR6261 binding signal (76A10): 137000
- CR6261 binding signal (75G5): 1.01e+06
- CR6261 binding signal (88C5): 471000
- CR6261 binding signal (86H9): 457000
- CR6261 binding signal (58C8): 277000
- CR6261 binding signal (66C8): 185000
- CR6261 binding signal (9C10): 114000
- CR6261 binding signal (51G3): 460000
- CR6261 binding signal (10F9): 166000
- CR6261 binding signal (53G10): 108000
- CR6261 binding signal (36D6): 71300
- CR6261 binding signal (86F1): 159000
- CR6261 binding signal (29C2): 178000
- CR6261 binding signal (79D5): 703000
- CR6261 binding signal (51G10): 215000
- CR6261 binding signal (1F2): 149000
- CR6261 binding signal (7A7): 988000
- CR6261 binding signal 850: 196000
- CR6261 binding signal (54H4): 292000
- CR6261 binding signal (63D3): 146000
- CR6261 binding signal (75H8): 103000
- CR6261 binding signal (9C6): 271000
- CR6261 binding signal (8A10): 360000
